Source: article PMC4019675

Target: FtsZ-Alexa488 (Cys-FtsZ labeled with Alexa488-maleimide)
Test: TIRF microscopy, single particle tracking

average lifetime of FtsZ monomers in the filament network: 7.16 s
Substance: FtsZ-Cy5 (Cys-FtsZ labeled with Cy5-maleimide) (natural protein)
